In this data set the test system is TTF-IΔN348. In words: MST. The conditions noted are these: 5 mM MgCl2; Hill coefficient 1; MST: 50 nM DNA, 5 nM-2.4 uM protein, 80 mM Tris-HCl pH 7.6, 80 mM KCl, 0.2 mM EDTA, 5 mM MgCl2, 10% glycerol, 0.05% IGEPAL CA-630, 10 min at 30 C; EMSA and …. Background: In EMSA bound probe runs differently from free probe, usually more slowly.

Usually Kd stands for the equilibrium constant for the complex coming apart. A high value points to a looser complex. Regarding T2 Sal-box 30-mer oligonucleotide, the Kd turned out to be 500 nM.
